Assay [1] deals with T1, Human MMP-9 catalytic domain (BIOMOL, SE-244) (human, UniProt P14780 107-457, limits assumed).
T1 construct: domain: catalytic domain; also called Cat-huMMP-9; cat-huMMP-9
The experiment in a line: Ki,app, enzyme inhibition assay (fluorogenic peptide substrate), IgG.

Assay [2] has as its target T2, Mouse MMP-9 (R&D, 909-MM), APMA-activated (mouse, UniProt P41245 108-730, limits assumed).
T2 construct: also called mMMP-9; mouse MMP-9 (R&D Systems #909-MM-010)
The description is as above.

Assay [3] addresses T3, human MMP-2 (Biomol #SE-237) (human, UniProt P08253 110-452, limits assumed).
T3 construct: also called hMMP-2
The description is as above.

Assay [4] has as its target T1, Human MMP-9 catalytic domain (BIOMOL, …). The assay is described as follows: Ki,app, enzyme inhibition assay (fluorogenic peptide substrate), small-scale sFab. The protocol:
(§1) Target enzymes were incubated with inhibitor for two hours at 30° C. in reaction buffer (50 mM Tris-HCl pH 7.5, 150 mM NaCl, 5 mM CaCl₂, 0.05% Brij-35) in a total volume of 90 μL using a white 96 well plate (Costar). […] An anti-MMP-2 antibody (R&D Systems polyclonal IgG #AF902) was similarly tested with 200 nM as the highest inhibitor concentration. Reactions were initiated by the addition of 10 μL of a 10× concentrated stock of substrate, Mca-Lys-Pro-Leu-Gly-Leu-Dap(Dnp)-Ala-Arg-NH2, (Bachem M-2350), at final concentration of 10 μM and monitored at 30° C. in a Molecular Devices' Gemini fluorescence plate reader. The excitation and emission wavelengths were set at 328 nm and 393 nm, respectively. Kinetic data were acquired by the increase in fluorescence, and initial rates for each condition were plotted against the total inhibitor concentration. Reactions were performed in duplicates and all data replicates were plotted in a single graph and fit to the following equation¹: […]

Assay [5] deals with T3, human MMP-2 (Biomol #SE-237). The description is as above. The protocol:
as §1

Assay [6] concerns the target T1, Human MMP-9 catalytic domain (BIOMOL, …). The experiment in a line: Ki,app, enzyme inhibition assay (fluorogenic peptide substrate), medium-scale sFab. The protocol:
as §1

Assay [7] concerns the target T3, human MMP-2 (Biomol #SE-237). The description is as above. The protocol:
as §1

Assay [8] has as its target T2, Mouse MMP-9 (R&D, 909-MM), …. The experiment in a line: Ki,app, enzyme inhibition assay (fluorogenic peptide substrate), small-scale sFab. The protocol: as §1

A value given as a limit tells only on which side of the number the result lay.

T1 sequence (P14780 107-457 limits assumed): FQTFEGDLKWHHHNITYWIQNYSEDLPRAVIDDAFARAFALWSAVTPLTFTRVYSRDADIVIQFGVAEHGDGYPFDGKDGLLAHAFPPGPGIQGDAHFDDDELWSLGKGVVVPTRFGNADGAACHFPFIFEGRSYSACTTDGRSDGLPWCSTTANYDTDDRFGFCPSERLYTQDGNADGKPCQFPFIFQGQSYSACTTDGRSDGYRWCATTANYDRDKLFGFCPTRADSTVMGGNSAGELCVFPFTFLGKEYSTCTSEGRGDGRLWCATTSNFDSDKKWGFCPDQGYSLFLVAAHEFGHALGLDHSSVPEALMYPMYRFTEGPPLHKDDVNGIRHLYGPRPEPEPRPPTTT
T3 sequence (P08253 110-452 limits assumed): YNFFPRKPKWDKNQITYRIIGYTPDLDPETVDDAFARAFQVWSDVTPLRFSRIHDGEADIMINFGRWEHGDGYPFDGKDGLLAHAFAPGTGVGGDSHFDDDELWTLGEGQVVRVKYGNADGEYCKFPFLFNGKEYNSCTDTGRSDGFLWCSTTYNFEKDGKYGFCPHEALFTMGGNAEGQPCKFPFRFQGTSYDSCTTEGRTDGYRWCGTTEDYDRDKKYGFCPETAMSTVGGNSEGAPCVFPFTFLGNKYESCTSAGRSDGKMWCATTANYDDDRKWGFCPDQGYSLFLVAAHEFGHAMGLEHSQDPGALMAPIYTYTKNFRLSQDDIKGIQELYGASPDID
T2 sequence (P41245 108-730 limits assumed): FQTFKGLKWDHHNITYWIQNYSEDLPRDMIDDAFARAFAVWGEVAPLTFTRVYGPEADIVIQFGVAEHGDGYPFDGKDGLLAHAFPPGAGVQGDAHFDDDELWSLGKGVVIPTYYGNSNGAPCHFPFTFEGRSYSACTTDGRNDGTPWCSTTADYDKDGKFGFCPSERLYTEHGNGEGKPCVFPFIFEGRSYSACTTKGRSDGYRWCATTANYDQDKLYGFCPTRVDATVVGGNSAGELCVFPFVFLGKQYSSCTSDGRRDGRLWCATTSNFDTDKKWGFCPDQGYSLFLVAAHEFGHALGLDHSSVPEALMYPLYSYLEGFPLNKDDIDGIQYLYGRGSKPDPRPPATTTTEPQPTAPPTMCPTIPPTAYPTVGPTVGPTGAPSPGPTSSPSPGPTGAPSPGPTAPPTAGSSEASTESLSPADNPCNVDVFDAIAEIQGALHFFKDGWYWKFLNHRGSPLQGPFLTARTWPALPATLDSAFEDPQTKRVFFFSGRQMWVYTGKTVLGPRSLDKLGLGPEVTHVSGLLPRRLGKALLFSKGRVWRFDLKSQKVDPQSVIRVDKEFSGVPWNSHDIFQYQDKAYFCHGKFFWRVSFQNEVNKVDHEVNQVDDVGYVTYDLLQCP

B1: X0106-B02 (antibody, V domains shown)
VH: EVQLLESGGGLVQPGGSLRLSCAASGFTFSWYDMWWVRQAPGKGLEWVSVIYSSGGPTFYADSVKGRFTISRDNSKNTLYLQMNSLRAEDTAVYYCAKDRAYGDYVGWNGFDYWGQGTLVTVSS
VL: EIVLTQSPATLSLSPGERATLSCRASQSISSFLAWYQQKPGQAPRLLIYDASYRATGIPARFSGSGSGTDFTLTISSLEPEDFAVYYCQQRGNWPITFGQGTRLEIK
notes: Produced and tested as IgG1; germlined, optimized version of M0276-F11
As to B1, the Ki in assay [1] was 0.08 nM; in assay [2] it was 0.24 nM; in assay [3], 0.31 nM.

B2: X0106-E04 (antibody, V domains shown)
VH: EVQLLESGGGLVQPGGSLRLSCAASGFTFSQYDMWWVRQAPGKGLEWVSVIYPSGTTFYADSVKGRFTISRDNSKNTLYLQMNSLRAEDTAVYYCAKDRAYGDYVGWNGFDYWGQGTLVTVSS
VL: EIVLTQSPATLSLSPGERATLSCRASQSISSFLAWYQQKPGQAPRLLIYDASYRATGIPARFSGSGSGTDFTLTISSLEPEDFAVYYCQQRGNWPITFGQGTRLEIK
notes: Produced and tested as IgG1; germlined, optimized version of M0275-D03; also called X0106-E4
As for B2, the values for the Ki in assay [1], in assay [2] and in assay [3] were 0.13 nM, 0.23 nM and 0.38 nM, respectively.

B3: M0299-A12 (Fab, V domains shown)
VH: EVQLLESGGGLVQPGGSLRLSCAASGFTFSHYPMWWVRQAPGKGLEWVSYISSSGGGTFYADSVKGRFTISRDNSKNTLYLQMNSLRAEDTAVYYCAKDRAYGDYVGWNGFDYWGQGTLVTVSS
VL: DIQMTQSPATLSLSPGERATLSCRASQSISSFLAWYQQKPGQAPRLLIYDASYRATGIPARFSGSGSGTDFTLTISSLEPEDYAVYYCQQRGNWPITFGQGTRLEIK
notes: sFab; variable domains only; also called M299-A12
For B3, the Ki turned out to be 0.2 nM in assay [4], 1.7 nM in assay [5], 0.6 nM in assay [6] and 1.7 nM in assay [7].

B4: M0273-G07 (Fab, V domains shown)
VH: EVQLLESGGGLVQPGGSLRLSCAASGFTFSHYDMWWVRQAPGKGLEWVSVIYPSGGPTYYADSVKGRFTISRDNSKNTLYLQMNSLRAEDTAVYYCAKDRAYGDYVGWNGFDYWGQGTLVTVSS
VL: DIQMTQSPATLSLSPGERATLSCRASQSISSFLAWYQQKPGQAPRLLIYDASYRATGIPARFSGSGSGTDFTLTISSLEPEDYAVYYCQQRGNWPITFGQGTRLEIK
notes: sFab; variable domains only; also called M273-G07
B4: the values for the Ki in assay [4], in assay [6] and in assay [7] were 0.6 nM, 0.6 nM and 1 nM, respectively.

B5: X0106-C03 (antibody, V domains shown)
VH: EVQLLESGGGLVQPGGSLRLSCAASGFTFSVYDMWWVRQAPGKGLEWVSVIYPSGGATYYADSVKGRFTISRDNSKNTLYLQMNSLRAEDTAVYYCAKDRAYGDYVGWNGFDYWGQGTLVTVSS
VL: EIVLTQSPATLSLSPGERATLSCRASQSISSFLAWYQQKPGQAPRLLIYDASYRATGIPARFSGSGSGTDFTLTISSLEPEDFAVYYCQQRGNWPITFGQGTRLEIK
notes: Produced and tested as IgG1; germlined, optimized version of M0274-G08; printed as X0106-C04 in some sentences; also called X0106-C04
For B5, the Ki in assay [1] stood at 0.14 nM; in assay [2], 0.22 nM; in assay [3], 0.42 nM.

B6: M0301-A09 (Fab, V domains shown)
VH: EVQLLESGGGLVQPGGSLRLSCAASGFTFSYYDMWWVRQAPGKGLEWVSVIYPSGGYTAYADSVKGRFTISRDNSKNTLYLQMNSLRAEDTAVYYCAKDRAYGDYVGWNGFDYWGQGTLVTVSS
VL: DIQMTQSPATLSLSPGERATLSCRASQSISSFLAWYQQKPGQAPRLLIYDASYRATGIPARFSGSGSGTDFTLTISSLEPEDYAVYYCQQRGNWPITFGQGTRLEIK
notes: sFab; variable domains only; also called M301-A09
With B6, the Ki in assay [4] stood at 0.3 nM; in assay [5] it was 0.5 nM; in assay [6], 0.5 nM; in assay [7], 1 nM.

B7: M0273-A11 (Fab, V domains shown)
VH: EVQLLESGGGLVQPGGSLRLSCAASGFTFSRYDMWWVRQAPGKGLEWVSVISPSGGATFYADSVKGRFTISRDNSKNTLYLQMNSLRAEDTAVYYCAKDRAYGDYVGWNGFDYWGQGTLVTVSS
VL: DIQMTQSPATLSLSPGERATLSCRASQSISSFLAWYQQKPGQAPRLLIYDASYRATGIPARFSGSGSGTDFTLTISSLEPEDYAVYYCQQRGNWPITFGQGTRLEIK
notes: sFab; variable domains only; also called M273-A11
Take B7: the Ki in assay [4] came to 0.6 nM; in assay [6], 0.8 nM; in assay [7], 2.7 nM.

B8: M0299-C09 (Fab, V domains shown)
VH: EVQLLESGGGLVQPGGSLRLSCAASGFTFSNYPMWWVRQAPGKGLEWVSYIVPSGGATFYADSVKGRFTISRDNSKNTLYLQMNSLRAEDTAVYYCAKDRAYGDYVGWNGFDYWGQGTLVTVSS
VL: DIQMTQSPATLSLSPGERATLSCRASQSISSFLAWYQQKPGQAPRLLIYDASYRATGIPARFSGSGSGTDFTLTISSLEPEDYAVYYCQQRGNWPITFGQGTRLEIK
notes: sFab; variable domains only; also called M299-C09
Turning to B8, the Ki was 0.7 nM in assay [4] and more than 5 nM in assay [5].

B9: M0306-D04 (Fab, V domains shown)
VH: EVQLLESGGGLVQPGGSLRLSCAASGFTFSLYPMWWVRQAPGKGLEWVSSIYPSGGATFYADSVKGRFTISRDNSKNTLYLQMNSLRAEDTAVYYCAKDRAYGDYVGWNGFDYWGQGTLVTVSS
VL: DIQMTQSPATLSLSPGERATLSCRASQSISSFLAWYQQKPGQAPRLLIYDASYRATGIPARFSGSGSGTDFTLTISSLEPEDYAVYYCQQRGNWPITFGQGTRLEIK
notes: sFab; variable domains only; also called M306-D04
On to B9, for which the values for the Ki in assay [4], in assay [8] and in assay [5] were 0.9 nM, 2.8 nM and 1 nM, respectively.

B10: X0106-F05 (antibody, V domains shown)
VH: EVQLLESGGGLVQPGGSLRLSCAASGFTFSLYDMWWVRQAPGKGLEWVSVIYSSGGYTGYADSVKGRFTISRDNSKNTLYLQMNSLRAEDTAVYYCAKDRAYGDYVGWNGFDYWGQGTLVTVSS
VL: EIVLTQSPATLSLSPGERATLSCRASQSISSFLAWYQQKPGQAPRLLIYDASYRATGIPARFSGSGSGTDFTLTISSLEPEDFAVYYCQQRGNWPITFGQGTRLEIK
notes: Produced and tested as IgG1; germlined, optimized version of M0307-F04
As for B10, the Ki in assay [1] worked out at 0.15 nM; in assay [2] it was 0.1 nM; in assay [3], 0.3 nM.

B11: M0275-E12 (Fab, V domains shown)
VH: EVQLLESGGGLVQPGGSLRLSCAASGFTFSHYDMWWVRQAPGKGLEWVSVIYSSGGFTGYADSVKGRFTISRDNSKNTLYLQMNSLRAEDTAVYYCAKDRAYGDYVGWNGFDYWGQGTLVTVSS
VL: DIQMTQSPATLSLSPGERATLSCRASQSISSFLAWYQQKPGQAPRLLIYDASYRATGIPARFSGSGSGTDFTLTISSLEPEDYAVYYCQQRGNWPITFGQGTRLEIK
notes: sFab; variable domains only; also called M275-E12
With B11, the Ki turned out to be 0.3 nM in assay [4]; 1 nM in assay [8]; 0.9 nM in assay [5]; 0.4 nM in assay [6]; 0.5 nM in assay [7].

B12: M0273-B10 (Fab, V domains shown)
VH: EVQLLESGGGLVQPGGSLRLSCAASGFTFSKYAMIWVRQAPGKGLEWVSWIPPSGGYTSYADSVKGRFTISRDNSKNTLYLQMNSLRAEDTAVYYCAKDRAYGDYVGWNGFDYWGQGTLVTVSS
VL: DIQMTQSPATLSLSPGERATLSCRASQSISSFLAWYQQKPGQAPRLLIYDASYRATGIPARFSGSGSGTDFTLTISSLEPEDYAVYYCQQRGNWPITFGQGTRLEIK
notes: sFab; variable domains only; also called M273-B10
In the case of B12, in assay [4], the Ki is 0.7 nM.

B13: M0273-C10 (Fab, V domains shown)
VH: EVQLLESGGGLVQPGGSLRLSCAASGFTFSFYPMWWVRQAPGKGLEWVSYIYPSGGATFYADSVKGRFTISRDNSKNTLYLQMNSLRAEDTAVYYCAKDRAYGDYVGWNGFDYWGQGTLVTVSS
VL: DIQMTQSPATLSLSPGERATLSCRASQSISSFLAWYQQKPGQAPRLLIYDASYRATGIPARFSGSGSGTDFTLTISSLEPEDYAVYYCQQRGNWPITFGQGTRLEIK
notes: sFab; variable domains only; also called M273-C10
As to B13, the Ki in assay [4] came to 0.9 nM; in assay [6], 1 nM; in assay [7] it was 2 nM.

B14: M0272-H08 (Fab, V domains shown)
VH: EVQLLESGGGLVQPGGSLRLSCAASGFTFSAYDMWWVRQAPGKGLEWVSVIYPSGGTTFYADSVKGRFTISRDNSKNTLYLQMNSLRAEDTAVYYCAKDRAYGDYVGWNGFDYWGQGTLVTVSS
VL: DIQMTQSPATLSLSPGERATLSCRASQSISSFLAWYQQKPGQAPRLLIYDASYRATGIPARFSGSGSGTDFTLTISSLEPEDYAVYYCQQRGNWPITFGQGTRLEIK
notes: sFab; variable domains only; also called M272-H08
Molecule B14 showed a Ki in assay [4] of 0.4 nM.

B15: M0301-D12 (Fab, V domains shown)
VH: EVQLLESGGGLVQPGGSLRLSCAASGFTFSMYDMWWVRQAPGKGLEWVSVIYSSGGYTSYADSVKGRFTISRDNSKNTLYLQMNSLRAEDTAVYYCAKDRAYGDYVGWNGFDYWGQGTLVTVSS
VL: DIQMTQSPATLSLSPGERATLSCRASQSISSFLAWYQQKPGQAPRLLIYDASYRATGIPARFSGSGSGTDFTLTISSLEPEDYAVYYCQQRGNWPITFGQGTRLEIK
notes: sFab; variable domains only; also called M301-D12
As to B15, the Ki was 1 nM in assay [4], 1.2 nM in assay [5], 1.7 nM in assay [6] and more than 10 nM in assay [7].

The values are drawn from US20110135573A1 (DYAX, published 2011).
